The values that follow are results of earlier work, collected in publication PMC4078514, “A Bombesin-Shepherdin Radioconjugate Designed for Combined Extra- and Intracellular Targeting” (Pharmaceuticals, 2014).

The Kd is the equilibrium constant for the complex coming apart.

The target of the data set is Hsp90 (Homo sapiens) (UniProt P07900).

Sequence of Shepherdin 79-83 (O15392 whole entry, looked up, tested part not stated): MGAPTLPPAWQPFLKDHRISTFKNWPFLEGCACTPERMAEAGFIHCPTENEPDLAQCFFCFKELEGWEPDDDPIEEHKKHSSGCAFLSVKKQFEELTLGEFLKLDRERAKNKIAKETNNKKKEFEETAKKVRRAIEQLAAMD

For the substance Shepherdin 79-83 (from UniProt O15392), the Kd was 80 nM.
